We go through two molecules from patent US20260152567A1 (CSPC MEGALITH BIOPHARMACEUTICAL, published 2026).

Broadly, the EC50 is the concentration at which the effect is half-maximal. By Kd is commonly meant the equilibrium constant for the complex coming apart. As a reminder, the koff is a measure of how fast the partners let go of each other. Usually kon stands for the second-order rate constant of association.

Test [1] addresses T1, recombinant human CD73 protein (human, UniProt P21589 27-547).
T1 sequence (looked up): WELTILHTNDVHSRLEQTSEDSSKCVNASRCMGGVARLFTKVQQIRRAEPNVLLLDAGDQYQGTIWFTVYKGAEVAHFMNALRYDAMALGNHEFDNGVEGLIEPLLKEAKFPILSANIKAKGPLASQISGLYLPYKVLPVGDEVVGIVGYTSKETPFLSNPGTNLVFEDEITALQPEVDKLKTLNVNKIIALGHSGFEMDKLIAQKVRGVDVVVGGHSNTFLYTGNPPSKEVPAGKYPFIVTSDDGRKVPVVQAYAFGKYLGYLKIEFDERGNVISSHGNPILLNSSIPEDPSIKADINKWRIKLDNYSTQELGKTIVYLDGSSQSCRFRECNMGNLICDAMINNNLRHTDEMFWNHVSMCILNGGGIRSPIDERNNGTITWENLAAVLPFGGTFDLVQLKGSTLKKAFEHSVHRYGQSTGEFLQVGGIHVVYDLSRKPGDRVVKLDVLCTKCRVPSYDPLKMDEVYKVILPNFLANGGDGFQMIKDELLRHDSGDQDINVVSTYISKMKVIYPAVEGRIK
Put plainly: cell-based or functional assay.

Test [2] has as its target T2, human CD73 on the cell surface (MDA-MB-231 and SKOV3 tumor cells) (human, UniProt P21589 27-549).
T2 construct: whole, on cells; also called cell surface CD73; CD73 on the surface of human tumor cells
T2 sequence (looked up): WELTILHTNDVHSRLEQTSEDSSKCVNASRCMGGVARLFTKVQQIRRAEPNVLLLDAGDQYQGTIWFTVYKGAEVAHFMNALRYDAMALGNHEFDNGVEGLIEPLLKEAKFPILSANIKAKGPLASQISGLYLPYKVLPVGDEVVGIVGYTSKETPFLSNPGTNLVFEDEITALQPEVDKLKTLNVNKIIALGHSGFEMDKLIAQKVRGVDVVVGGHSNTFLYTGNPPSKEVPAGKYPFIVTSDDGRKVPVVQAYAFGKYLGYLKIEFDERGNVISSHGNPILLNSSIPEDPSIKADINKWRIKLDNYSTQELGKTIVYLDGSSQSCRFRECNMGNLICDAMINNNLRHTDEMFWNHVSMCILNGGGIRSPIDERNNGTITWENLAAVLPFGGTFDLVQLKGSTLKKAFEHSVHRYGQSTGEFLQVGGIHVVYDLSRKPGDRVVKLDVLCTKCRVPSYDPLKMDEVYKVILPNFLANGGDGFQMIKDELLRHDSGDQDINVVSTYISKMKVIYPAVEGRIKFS
Put plainly: flow cytometry on SK-OV-3 cells. How it is done:
In this example, the exemplary antibodies of the present application were compared with anti-CD73 antibodies described in other patent applications. Antibodies MEDI9447 and Hu101-28 (with CDR sequences from PCT patent applications WO 2016/075099 and WO 2018/137598, respectively) were cloned into eukaryotic expression vectors containing the hIgG1-kappa constant region. The binding ability of the humanized antibodies Hab7C3C2.5 and Hab1F2F9.15 to cell surface CD73 was assessed using tumor cell lines MDA-MB-231 and SKOV3 which endogenously express human CD73 on the cell surface. The cells were seeded in a 96-well plate at a density of 2×10⁶ cells/mL, with 100 μL per well. 4-fold gradient dilutions (0-100 nM) of the antibodies were added, and the mixture was incubated at 4° C. for 1 h. A goat anti-human secondary antibody was added, and the mixture was incubated at 4° C. in the dark for 50 min for labeling. The fluorescence intensity of the cells was then measured by a flow cytometer.
Background: In flow cytometry, cells or beads pass a laser one at a time.

Test [3] addresses T3, C-terminal portion of the CD73 protein (Homo sapiens (Human), UniProt P21589 337-549).
T3 construct: also called CD73 C-terminal protein; C-terminus of the CD73 protein
T3 sequence: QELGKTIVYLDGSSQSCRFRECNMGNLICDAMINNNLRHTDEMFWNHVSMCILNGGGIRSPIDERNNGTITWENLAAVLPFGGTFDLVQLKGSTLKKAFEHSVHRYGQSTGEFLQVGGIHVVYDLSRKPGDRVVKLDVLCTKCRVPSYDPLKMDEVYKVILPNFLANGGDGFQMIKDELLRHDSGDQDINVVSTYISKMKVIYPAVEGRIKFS
Put plainly: ELISA, plate coated with CD73 C-terminal protein at 1 µg/mL. How it is done: In this example, the C-terminal portion (SEQ ID NO. 41) and the N-terminal portion (SEQ ID NO. 42) of the CD73 protein were separately constructed, and the epitopes recognized by the antibodies were detected by ELISA method. Elisa plates were respectively coated with the CD73 N-terminal and C-terminal proteins at a concentration of 1 μg/mL. The test antibodies were diluted in a gradient.

Test [4] addresses T1, recombinant human CD73 protein. Put plainly: ELISA, plate coated with recombinant CD73 protein at 1 µg/mL. On the procedure:
The affinity of the humanized antibodies to the recombinant CD73 protein was determined using an ELISA method. A elisa plate was coated with the CD73 protein at a concentration of 1 μg/mL. 5-fold gradient dilutions (0-66.7 nM) of the test antibodies were added.

The target in test [5] is T4, cynomolgus monkey CD73 protein (cynomolgus monkey, UniProt A0A2K5V5U7 27-547).
T4 construct: construct not described
T4 sequence: T1 sequence (looked up) with M199T, T350A, V466I
Put plainly: BLI (Fortebio), cynomolgus CD73 on HIS1K biosensors, antibody as analyte. How it is done: In this example, the cross-binding ability of the exemplary humanized anti-CD73 antibodies of the present application to cynomolgus monkey CD73 was assayed by a Fortebio experiment. The specific implementation steps included immobilizing the cynomolgus monkey CD73 protein onto HIS1K biosensors. […] The times for the ligand-analyte binding and dissociation were 120 s and 300 s, respectively. The data of the antigen-antibody affinity were calculated by regression according to the binding curves using an analysis software.
Background: In BLI a coated tip is dipped into the sample, and binding shifts an interference pattern.

Changes are numbered by the printed parent chain.

B1: Hab7C3C2.5 (antibody, human IgG1, kappa, L234A L235A, V domains shown)
VH: QVQLVQSGAEVKKPGASVKVSCKASGYTFTSYDINWVRQATGQGLEWIGWIYPRDGFTKYNEKFKGRVTLTVNTSISTAYMELSSLRSEDTAVYYCARKEGYRGDWYFDVWGQGTTVTVSS
VL: DIQMTQSPSSLSASVGDRVTITCRASGNVHNYLAWYQQKPGKAPKLLLYNAKTLASGVPSRFSGSGSGTDYTLTISSLQPEDFATYYCQHFWSTPWTFGGGTELEIKR
notes: Humanized 7C3C2; also called Hab7C3C.5
B1: the “Protein enzymatic activity inhibition IC50” value in test [1] was 0.018 nM. In test [2], this molecule gave a 50% effective concentration (EC50) of 0.07 nM. Moreover, the binding result in test [3] is reported as “no binding”. Besides, in test [4], the EC50 came out at 0.013 nM. In test [5], the Kd worked out at 0.732 nM, the koff stood at 0.00299 s⁻¹ and the kon was determined as 4.08e+06 M⁻¹ s⁻¹.

B2: Hab1F2F9.15 (antibody, human IgG1, kappa, L234A L235A, V domains shown)
VH: QVQLVQSGAEVKKPGASVKVSCKASGYTFTSYWMHWVRQAPGQRLEWMGNINPSNGGTKYSQKFQGRVTITVDTSASTAYMELSSLRSEDTAVYYCARRDYGSPSYWGQGTTVTVSS
VL: DIQMTQSPSSLSASVGDRVTITCKASQDINSYLTWFQQKPGKAPKSLIYRTNILLDGVPSRFSGSGSGTDYTLTISSLQPEDFATYYCLQYHEFPVTFGGGTKLEIKR
notes: Humanized 1F2F9; also called Huab1F2F9.15; HuablF2F9.15
As to B2, the “Protein enzymatic activity inhibition IC50” value in test [1] came to 0.011 nM. In addition, the concentration for a half-maximal effect (EC50) in test [2] came out at 0.19 nM. For the same molecule, in test [3], the binding result is listed as “no binding”. For the same molecule, the concentration for a half-maximal effect (EC50) in test [4] amounted to 0.011 nM. Also, in test [5], the affinity, expressed as Kd, was 0.814 nM; the koff was 0.0017 s⁻¹; the kon was found to be 2.09e+06 M⁻¹ s⁻¹.
